The target of assay [1] is 23 amino acid synthetic M2e peptide of A/Fort Worth/1/50 (H1N1) (influenza A virus A/Fort Worth/1/50 (H1N1)). The assay can be described thus: ELISA on coated 23mer M2e peptide. A general note: An ELISA detects its analyte on a solid surface through an enzyme-linked reagent.
Assay [2] deals with truncated M2 peptide SEQ ID NO 308. The assay can be described thus: peptide ELISA, 5 µg/mL.
In assay [3] the target is truncated M2 peptide SEQ ID NO 316. Nature of the assay: peptide ELISA, 5 µg/mL.
The target in assay [4] is truncated M2 peptide SEQ ID NO 298. The assay can be described thus: peptide ELISA, 5 µg/mL.
Assay [5] concerns the target M2 peptide SEQ ID NO 273. The assay can be described thus: peptide ELISA, 5 µg/mL.
In assay [6] the target is truncated M2 peptide SEQ ID NO 306. The assay can be described thus: peptide ELISA, 5 µg/mL.
Assay [7] deals with truncated M2 peptide SEQ ID NO 312. Nature of the assay: peptide ELISA, 5 µg/mL.
The target of assay [8] is truncated M2 peptide SEQ ID NO 301. Nature of the assay: peptide ELISA, 5 µg/mL.
Assay [9] concerns the target truncated M2 peptide SEQ ID NO 307. Nature of the assay: peptide ELISA, 5 µg/mL.
The target in assay [10] is truncated M2 peptide SEQ ID NO 313. The assay can be described thus: peptide ELISA, 5 µg/mL.
Assay [11] concerns the target truncated M2 peptide SEQ ID NO 311. The assay can be described thus: peptide ELISA, 5 µg/mL.
The target in assay [12] is truncated M2 peptide SEQ ID NO 299. Nature of the assay: peptide ELISA, 5 µg/mL.
The target in assay [13] is truncated M2 peptide SEQ ID NO 314. Nature of the assay: peptide ELISA, 5 µg/mL.
Assay [14] concerns the target truncated M2 peptide SEQ ID NO 310. Nature of the assay: peptide ELISA, 5 µg/mL.
Assay [15] deals with truncated M2 peptide SEQ ID NO 302. The assay can be described thus: peptide ELISA, 5 µg/mL.
For assay [16], the target named is truncated M2 peptide SEQ ID NO 304. The assay can be described thus: peptide ELISA, 5 µg/mL.
The target in assay [17] is truncated M2 peptide SEQ ID NO 309. Nature of the assay: peptide ELISA, 5 µg/mL.
Assay [18] addresses truncated M2 peptide SEQ ID NO 305. Nature of the assay: peptide ELISA, 5 µg/mL.
Assay [19] concerns the target truncated M2 peptide SEQ ID NO 315. The assay can be described thus: peptide ELISA, 5 µg/mL.
Assay [20] deals with truncated M2 peptide SEQ ID NO 271. The assay can be described thus: peptide ELISA, 5 µg/mL.
Assay [21] concerns the target truncated M2 peptide SEQ ID NO 300. Nature of the assay: peptide ELISA, 5 µg/mL.
Assay [22] has as its target truncated M2 peptide SEQ ID NO 303. The assay can be described thus: peptide ELISA, 5 µg/mL.
Assay [23] deals with T1, A.Hong Kong.1.68.H3N2.
T1 M2: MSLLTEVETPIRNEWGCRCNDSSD
The assay can be described thus: FACS, transfected HEK293, 1 µg/ml [D00006 FIG. 3C-1].

Assay [24] deals with T2, A.Caracas.1.71.H3N2.
T2 M2: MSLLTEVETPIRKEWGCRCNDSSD
Described as above.

In assay [25] the target is T3, A.Hong Kong.1144.99.H3N2.
T3 M2: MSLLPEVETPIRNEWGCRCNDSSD
The assay can be described thus: FACS, transfected 293 cells. (Flow cytometry measures light scatter and fluorescence of single cells or particles in a stream.)

For assay [26], the target named is T4, A.Hong Kong.1180.99 H3N2.
T4 M2: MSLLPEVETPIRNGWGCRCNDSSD
The assay can be described thus: FACS, transfected 293 cells.

For assay [27], the target named is truncated M2 peptide SEQ ID NO 309. Nature of the assay: peptide ELISA, 5 µg/mL. This is another data set of the same source.
In assay [28] the target is truncated M2 peptide SEQ ID NO 298. The assay can be described thus: peptide ELISA, 5 µg/mL. This is another data set of the same source.
The target of assay [29] is truncated M2 peptide SEQ ID NO 299. The assay can be described thus: peptide ELISA, 5 µg/mL. The source holds these as a separate data set.
Assay [30] concerns the target T1, A.Hong Kong.1.68.H3N2. The assay can be described thus: FACS, transfected 293 cells, 1 µg/mL.
The target in assay [31] is T2, A.Caracas.1.71.H3N2. The assay can be described thus: FACS, transfected 293 cells, 1 µg/mL.

Where two headings read alike, the source gives them in different places.

The molecule “14C2 (chimeric mouse V-region/human IgG1 kappa 14C2 antibody)” yielded an EC50 in [1] of 0.01 µg/mL. In addition, the ELISA A450 in assay [2] was found to be 3.9; in [3], 0.14; in [4] it was 3.94; in assay [5] it was 3.85; in assay [6], 0.27; in assay [7], 0.2. Further, the ELISA A450 was 0.19 in [8]; 3.99 in assay [9]; 0.21 in assay [10]; 0.18 in assay [11]; 3.95 in assay [12]; 0.17 in [13]. Moreover, the ELISA A450 stood at 3.97 in assay [14]; 0.23 in assay [15]; 0.23 in assay [16]; 3.97 in assay [17]; 0.22 in assay [18]; 0.15 in [19]. Moreover, the ELISA A450 in assay [20] amounted to 0.21; in [21], 0.15; in assay [22], 0.19.

B1: 8I10 (antibody, V domains shown)
VH: QVQLQESGPGLVKPSETLSLTCTVSGSSISNYYWSWIRQSPGKGLEWIGFIYYGGNTKYNPSLKSRVTISQDTSKSQVSLTMSSVTAAESAVYFCARASCSGGYCILDYWGQGTLVTVS
VL: DIQMTQSPSSLSASVGDRVTITCRASQNIYKYLNWYQQRPGKAPKGLISAASGLQSGVPSRFSGSGSGTDFTLTITSLQPEDFATYYCQQSYSPPLTFGGGTRVEIK
For B1, the binding result in [23] is “binds”; in assay [24], “binds”; in assay [25] it was “no binding (tested: 1 µg/mL)”; in assay [26], “no binding (tested: 1 µg/mL)”.

B2: 23K12 (antibody, V domains shown)
VH: EVQLVESGGGLVQPGGSLRISCAASGFTVSSNYMSWVRQAPGKGLEWVSVIYSGGSTYYADSVKGRFSFSRDNSKNTVFLQMNSLRAEDTAVYYCARCLSRMRGYGLDVWGQGTTVTVS
VL: DIQMTQSPSSLSASVGDRVTITCRTSQSISSYLNWYQQKPGKAPKLLIYAASSLQSGVPSRFSGSGSGTDFTLTISGLQPEDFATYYCQQSYSMPAFGQGTKLEIK
On to B2, for which the ELISA A450 in assay [27] is 0.3; in assay [28] it was 0.21; in assay [29] it was 0.21. Besides, the binding result in assay [30] is on record as “binds”; in [31] it was “binds”; in assay [25], “no binding (tested: 1 µg/mL)”; in assay [26], “no binding (tested: 1 µg/mL)”.

As a reminder, the EC50 is the concentration at which the effect is half-maximal. A lower EC50 goes with greater potency.

Values taken from US20120315277A1, “Compositions and Methods for the Therapy and Diagnosis of Influenza” (priority 2011, published 2012).
